Data reported in patent US20250060376A1 (PLASMARKER BIOTECHNOLOGY, published 2025).
Residue numbers refer to the chain shown, from its start.

B1: DIR antibody IR-II-1 (antibody, V domains shown)
VH: QVQLKESGAELMKPGASVKISCKATGYTFSSYWIEWVKQRPGHGLEWIGEILPGSGTTNYNDKFKGKATFTADTSSNTAYMQLSNLTSEDSAVYYCARSYDGYYVFDYWGQGTTLTVSS
VL: DIELTQSPASLAVSLGQRATISCKASQSVDYDGDSYMNWYQQKPGQPPKLLIYAASNLESGIPARFSGSGSGTDFTLNIHPVEEEDAATYYCQQSNEDPRTFGGGTKLEIK
notes: Monoclonal antibody
B2: DIR antibody IR-II-6 (antibody, V domains shown)
VH: QVQLQQSGAELMKPGASVKISCKATGYTFSRYWIEWIKQRPGHGLEWIGEILPGSYYSTNSNEKFKGKATFTADTSSNTAYMQLSSLTSEDSAVYYCARSGVITTRGDYFAMDYWGHGTSVTVSS
VL: B1 VL with E3V, I52M
notes: Monoclonal antibody; also called detection antibody
B3: DIR antibody IR-II-4 (antibody, V domains shown)
VH: QVQLQQSGAELMKPGASVKISCKATGYTFSSYWIEWVKQRPGHGLEWIGEILPGSGSTNYNEKFKGKATFTADTSSNTAYMQLNSLTSEDSAVYYCARTDDGYLSYFAMDYWGQGTSVTVSS
VL: B1 VL with E3L, L4M, S7T
notes: Monoclonal antibody
B4: DIR antibody IR-II-8 (antibody, V domains shown)
VH: QVQLQQSGAELMKPGASVKISCKATGYTFSNYWIEWVKQRPGHGLEWIGEILPGSGSTNYNEKFKGKATFTADTSSNTAYMQLSSLTSEDSAVYYCARSGMITTRGDYFAMDYWGQGTSVTVSS
VL: B1 VL with D34E, E97D
notes: Monoclonal antibody
B5: DIR antibody IR-II-9 (antibody, V domains shown)
VH: B2 VH
VL: B1 VL with D34E, N96Y, E97D, T101A
notes: Monoclonal antibody
B6: DIR antibody IR-II-7 (antibody, V domains shown)
VH: B2 VH with R31N, S61Y, G67D, M82I, V102I, H117Q
VL: B1 VL with E3V, I52M
notes: Monoclonal antibody
B7: DIR antibody IR-II-2 (antibody, V domains shown)
VH: B4 VH with Q1E, N31S, S57T, A72V, M101V, T104A, F109Y
VL: B1 VL with E3V, L4M, E59D
notes: Monoclonal antibody
B8: DIR antibody IR-II-3 (antibody, V domains shown)
VH: B2 VH with Q1E, R31N, S61Y, M82I, V102M, H117Q
VL: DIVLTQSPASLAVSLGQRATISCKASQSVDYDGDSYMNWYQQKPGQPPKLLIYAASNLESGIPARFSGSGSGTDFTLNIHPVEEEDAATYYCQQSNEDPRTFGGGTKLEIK
notes: Monoclonal antibody
B9: DIR antibody IR-II-5 (antibody, V domains shown)
VH: B4 VH with L11V, N31S, V37I, S55G, G56Y, S57N, Y60S, K63N, R105T, F109Y
VL: B1 VL with D34E, E97D
notes: Monoclonal antibody
B10: DIR antibody IR-II-10 (A2D10) (antibody, V domains shown)
VH: EVQLQQSGPELVKPGASVKISCKTSGYTFTEYTMHWVKQSHGKSLEWIGGIYPHNGGTNYNQKFKGKATLTVDKSSSTAYMELRSLTSEDSAVYYCTEDLTFDYWGQGTTLTVSS
VL: DIQMTQTTSSLSASLGDRVTISCSASQDISNYLNWYQQKPDGTVKLLIYYTSSLHSGVPSRFSGSGSGTDYSLTISNLEPEDIATYHCLQYSKLPFTFGSGTKLEIK
notes: Monoclonal antibody
B11: DNA damage-inducible transcript 4-like (DDIT4L) intron retention spliced product (DIR) protein (other)
chain: MVATGSLSSKNPASISELLDCGYHPESLLSGECPRCPPFSPPKVGASGSIGWAGFRLPPLPLCRRCHKIHLRRLLSKFSNIFSP
notes: 84 aa spliced product peptide; also called QDLIR; human DIR

Target: T1, fragment DIR-II (last 27 amino acids of the sequence encoded by the retained intron of DIR) (human)
T1 construct: also called target fragment DIR-II
T1 peptide: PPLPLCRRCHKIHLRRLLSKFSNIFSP
Assay: ELISA, DIR-II coated; mAb (1 mg/mL) diluted 1:162k
Description: (§1) The binding activity of the above antibodies IR-II-1 to IR-II-10 to fragments DIR-II was detected. The method specifically comprises:
(§2) The target fragment DIR-II was coated on a 96-well plate using a coating buffer and blocked with a blocking buffer. […] Then, a secondary antibody with horseradish peroxidase (1:5k) was added and incubated at 37° C. After washing three times, an appropriate volume of TMB substrate solution was added, and the resulting mixture was incubated at 37° C. for a certain period of time, and then placed under a microplate reader to record the absorbance value of the sample at a wavelength of 450 nm.

Binder | absorbance at 450 nm
B1 | 0.109 absorbance (450 nm)
B2 | 0.414 absorbance (450 nm)
B3 | 0.136 absorbance (450 nm)
B4 | 0.0911 absorbance (450 nm)
B5 | 0.318 absorbance (450 nm)
B6 | 0.164 absorbance (450 nm)
B7 | 0.14 absorbance (450 nm)
B8 | 0.366 absorbance (450 nm)
B9 | 0.19 absorbance (450 nm)
B10 | 0.0517 absorbance (450 nm)

Target: T1, fragment DIR-II (last 27 amino acids of …)
Assay: ELISA, DIR-II coated; mAb (1 mg/mL) diluted 1:2k
Description: as §1, §2

Binder | absorbance at 450 nm
B1 | 3.14 absorbance (450 nm)
B2 | 3.09 absorbance (450 nm)
B3 | 3.3 absorbance (450 nm)
B4 | 3.2 absorbance (450 nm)
B5 | 3.11 absorbance (450 nm)
B6 | 3.09 absorbance (450 nm)
B7 | 3.23 absorbance (450 nm)
B8 | 3.05 absorbance (450 nm)
B9 | 3.24 absorbance (450 nm)
B10 | 2.01 absorbance (450 nm)

Target: T1, fragment DIR-II (last 27 amino acids of …)
Assay: ELISA, DIR-II coated; mAb (1 mg/mL) diluted 1:54k
Description: as §1, §2

Binder | absorbance at 450 nm
B1 | 0.264 absorbance (450 nm)
B2 | 0.78 absorbance (450 nm)
B3 | 0.186 absorbance (450 nm)
B4 | 0.138 absorbance (450 nm)
B5 | 0.622 absorbance (450 nm)
B6 | 0.35 absorbance (450 nm)
B7 | 0.193 absorbance (450 nm)
B8 | 0.4 absorbance (450 nm)
B9 | 0.159 absorbance (450 nm)
B10 | 0.0783 absorbance (450 nm)

Target: T1, fragment DIR-II (last 27 amino acids of …)
Assay: ELISA, DIR-II coated; mAb (1 mg/mL) diluted 1:6k
Description: as §1, §2

Binder | absorbance at 450 nm
B1 | 2.98 absorbance (450 nm)
B2 | 3.18 absorbance (450 nm)
B3 | 1.77 absorbance (450 nm)
B4 | 0.87 absorbance (450 nm)
B5 | 3.27 absorbance (450 nm)
B6 | 2.98 absorbance (450 nm)
B7 | 1.62 absorbance (450 nm)
B8 | 3.05 absorbance (450 nm)
B9 | 1.31 absorbance (450 nm)
B10 | 0.472 absorbance (450 nm)

target: T2, GluA1 (mouse (hippocampus of DIR-KI mice), UniProt P23818 19-907, limits assumed); assay: PLA assay in hippocampus (FIG. 20E)
T2 construct: Endogenous protein in tissue sections (PLA assay)
T2 sequence (P23818 19-907 limits assumed): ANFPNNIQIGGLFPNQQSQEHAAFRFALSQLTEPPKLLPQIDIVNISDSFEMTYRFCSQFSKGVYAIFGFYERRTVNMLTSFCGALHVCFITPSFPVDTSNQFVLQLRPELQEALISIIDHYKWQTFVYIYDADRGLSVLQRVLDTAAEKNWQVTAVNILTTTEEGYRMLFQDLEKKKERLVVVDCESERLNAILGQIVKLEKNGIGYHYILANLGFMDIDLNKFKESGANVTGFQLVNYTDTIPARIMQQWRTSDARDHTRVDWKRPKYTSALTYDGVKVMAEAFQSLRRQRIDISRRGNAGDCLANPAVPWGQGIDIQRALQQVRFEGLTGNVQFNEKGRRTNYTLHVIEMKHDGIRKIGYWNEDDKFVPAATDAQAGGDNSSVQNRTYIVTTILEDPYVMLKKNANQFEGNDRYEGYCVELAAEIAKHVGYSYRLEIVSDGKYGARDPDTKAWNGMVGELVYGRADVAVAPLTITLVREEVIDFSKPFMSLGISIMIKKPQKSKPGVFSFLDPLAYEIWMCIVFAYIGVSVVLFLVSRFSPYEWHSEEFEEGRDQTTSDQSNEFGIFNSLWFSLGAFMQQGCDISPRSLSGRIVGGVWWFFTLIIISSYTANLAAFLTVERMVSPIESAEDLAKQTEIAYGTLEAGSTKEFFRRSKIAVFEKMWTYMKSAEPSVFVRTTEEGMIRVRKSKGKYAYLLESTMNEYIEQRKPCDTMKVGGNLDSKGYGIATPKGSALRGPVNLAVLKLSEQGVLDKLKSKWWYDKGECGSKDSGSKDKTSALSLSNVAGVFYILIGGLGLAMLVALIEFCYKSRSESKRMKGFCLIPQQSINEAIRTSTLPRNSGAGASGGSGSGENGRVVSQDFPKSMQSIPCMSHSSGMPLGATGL

Binder | binding result
B11 | binds

Target: T1, fragment DIR-II (last 27 amino acids of …)
Assay: ELISA, DIR-II coated; mAb (1 mg/mL) diluted 1:4374k
Description: as §1, §2

Binder | absorbance at 450 nm
B1 | 0.0934 absorbance (450 nm)
B2 | 0.18 absorbance (450 nm)
B3 | 0.0775 absorbance (450 nm)
B4 | 0.0887 absorbance (450 nm)
B5 | 0.193 absorbance (450 nm)
B6 | 0.0867 absorbance (450 nm)
B7 | 0.115 absorbance (450 nm)
B8 | 0.153 absorbance (450 nm)
B9 | 0.0868 absorbance (450 nm)
B10 | 0.0427 absorbance (450 nm)

Target: T1, fragment DIR-II (last 27 amino acids of …)
Assay: ELISA, DIR-II coated; mAb (1 mg/mL) diluted 1:486k
Description: as §1, §2

Binder | absorbance at 450 nm
B1 | 0.0656 absorbance (450 nm)
B2 | 0.306 absorbance (450 nm)
B3 | 0.0955 absorbance (450 nm)
B4 | 0.0864 absorbance (450 nm)
B5 | 0.207 absorbance (450 nm)
B6 | 0.121 absorbance (450 nm)
B7 | 0.112 absorbance (450 nm)
B8 | 0.173 absorbance (450 nm)
B9 | 0.285 absorbance (450 nm)
B10 | 0.0517 absorbance (450 nm)

Target: B11
Assay: sandwich ELISA, capture antibody GL Biochem AB009458, detection antibody IR-II-6 (method of paragraph 444)
Description: Methods for collecting venous blood and obtaining plasma: The blood was collected from the vein in cubital fossa of a patient into an EDTA vacuum tube by using the vacuum blood collection technique, and the tube was immediately inverted gently 8 times to fully mix the blood and an anticoagulant. Then, the tube was transported to the laboratory on ice, centrifuged for 10 min at 1500 g at 4° C., and the supernatant was aspirated, aliquoted, and stored at −80° C.
ELISA method for plasma: The plasma sample was diluted at 1:1 with 1× diluent (OBT1998G, purchased from Bio-Rad); then, 100 μl of a blocking solution was added using a pipette for blockage for 1 h at 37° C.; then, 100 μl of a proportionally diluted standard and diluted plasma were added into plate wells coated with capture antibodies (GL Biochem, AB009458) by using the pipette, the tip of which was changed for each sampling; the resulting mixture was incubated for 1.5 h at 37° C.; the liquid in each well was removed, and the well was washed 3 times with 100 μl 1× washing solution (BUF031C, purchased from Bio-Rad); 100 μl of detection antibody (i. e., the DIR antibody IR-II-6, of which a VH amino acid sequence was as set forth in SEQ ID NO. 58, and of which a VL amino acid sequence was as set forth in SEQ ID NO. […]

Binder | binding result
B2 | binds

Target: T1, fragment DIR-II (last 27 amino acids of …)
Assay: ELISA, DIR-II coated; mAb (1 mg/mL) diluted 1:18k
Description: as §1, §2

Binder | absorbance at 450 nm
B1 | 0.818 absorbance (450 nm)
B2 | 2.01 absorbance (450 nm)
B3 | 0.555 absorbance (450 nm)
B4 | 0.257 absorbance (450 nm)
B5 | 1.87 absorbance (450 nm)
B6 | 1.16 absorbance (450 nm)
B7 | 0.823 absorbance (450 nm)
B8 | 1.27 absorbance (450 nm)
B9 | 0.387 absorbance (450 nm)
B10 | 0.142 absorbance (450 nm)

Target: T1, fragment DIR-II (last 27 amino acids of …)
Assay: ELISA, DIR-II coated; mAb (1 mg/mL) diluted 1:1458k
Description: as §1, §2

Binder | absorbance at 450 nm
B1 | 0.0653 absorbance (450 nm)
B2 | 0.2 absorbance (450 nm)
B3 | 0.0751 absorbance (450 nm)
B4 | 0.0906 absorbance (450 nm)
B5 | 0.169 absorbance (450 nm)
B6 | 0.103 absorbance (450 nm)
B7 | 0.0839 absorbance (450 nm)
B8 | 0.166 absorbance (450 nm)
B9 | 0.0911 absorbance (450 nm)
B10 | 0.0501 absorbance (450 nm)
